Patent publication US12509503B2, “Pan-neuraminidase inhibiting antibodies” (Washington University, priority 2019, dated 2025)

How the values were obtained:
[1] = system: influenza A group 1 and group 2 NAs; assay: Enzyme-linked lectin assay (ELLA) neuraminidase inhibition, influenza A NAs; assay type: biochemical, influenza A virus; settings: for neuraminidase inhibition (NI) in ELLA: fetuin substrate, subtypes inhibited are named in the value
Description: Ninety six-well microtiter plates (Thermo Fisher) were coated with 100 μL/well fetuin (Sigma) at a concentration of 25 μg/mL in 1× coating buffer (KPL coating solution; SeraCare) at 4° C. overnight. The next day, the plates were washed three times with T-PBS and blocked in 200 μL blocking buffer (5% bovine serum albumin (BSA, Biomedicals) in PBS) at room temperature. On a separate 96-well plate virus was serially diluted 1:2 in PBS. Seventy-five μL of PBS was added to all wells and the plates incubated for 1.5 h on a shaker at room temperature. After blocking, the plates were washed three times with T-PBS, 100 μL of serially diluted virus was transferred well by well to the fetuin coated plates and the plates were incubated for 2 hours at 33° C. or 37° C. depending on the virus type. The plates were washed four times and 100 μL peanut agglutinin (PNA) conjugated to HRP at a concentration of 5 μg/mL was added to all wells. The plates were incubated in the dark for two hours, the plates washed four times and developed with 100 μL SigmaFast OPD. The reaction was stopped after 5 min with 50 μL 3M hydrochloric acid (Thermo Fisher) and the plates were read at a wavelength of 490 nm with a microtiter plate reader (Bio-Tek). The data were analyzed in Microsoft Excel and GraphPad Prism 7, and the 50% effective concentration (EC50) was calculated for each virus.
To perform neuraminidase inhibition assays, the microtiter plates were coated and blocked as described above. During the blocking of the fetuin coated plates the mAbs were diluted to a starting concentration of 30 μg/mL and serially diluted 1:2 in PBS in a separate 96-well plate. Seventy-five μL of virus diluted to 2× effective concentration 50 (EC50) was added to wells of the serially diluted mAbs and incubated for 1.5 h on a shaker. The fetuin coated plates were washed three times with T-PBS and the virus/mAb mixture was added to the plates and incubated for 2 hours at 33° C. or 37° C. The remainder of the assay was performed as described above. The data were analyzed in Microsoft Excel and GraphPad Prism 7, and the inhibitory concentration 50 (IC50) was calculated.

recombinant N2 NA = assay type: binding, influenza A virus
[2] = system: recombinant NA, group 1 NAs (N1, N4, N5 and N8) and group 2 NAs (N2, N3, N6, N7 and N9); assay type: binding, influenza A virus
[3] = system: virus expressing a group 1 neuraminidase (N4); set-up: species or system mice; settings: mouse, in vivo
[4] = system: challenge viruses expressing N1, N2, N3, N5, N6, N7, N8, N9 NAs and influenza B virus NA; set-up: species or system mice; settings: mouse, in vivo

| Molecule | neuraminidase inhibition (NI) in ELLA [1] | binding to N2 NA (recombinant N2 NA) | binding / cross-reactivity to recombinant influenza A NA subtypes in ELISA [2] | weight loss [3] | protection against weight loss [4] | protection from lethality [4] | NA inhibition in ELLA ([1]; H3N2 strain A/Hong Kong/4801/2014) |
| --- | --- | --- | --- | --- | --- | --- | --- |
| 1G04: human anti-NA monoclonal antibody expressed as IgG1; heavy chain variable region SEQ ID NO: 40, light chain variable region SEQ ID NO: 41 (antibody, listed as Homo sapiens, V domains shown, IgG1 constant regions) VH: EVQLVESGGRVVRPGGSLRLSCAASGFTFDDYGMSWVRQAPGKGLEFVSGLNWNGDITAFTDSVKGRFTISRDNAKSSLYLQMNSLRADDTAFYYCARVRTWGEYTTREEPIHSWYFDLWGRGTLVTVSS VL: DIQLTQSPSFLSASVGDRVTITCRASQDISSFLAWYQQKPGNAPKVLIYAASLLQSGVPSRFSGSGSGTDFTLTISSLQPEDFATYYCQQLNSYPLFTFGPGTKVDIK | inhibited N2, N3 and certain N1 NAs | bound | some cross-reactivity to N3 and N6 (group 2), and N1, N5 and N8 (group 1) |  |  |  |  |
| 1E01: human anti-NA monoclonal antibody expressed as IgG1; heavy chain variable region SEQ ID NO: 42, light chain variable region SEQ ID NO: 43 (antibody, listed as Homo sapiens, V domains shown, IgG1 constant regions) VH: EVQLVESGGRVVRPGGSLRLSCAASGFTFDDYGMSWVRQPPGKGLEFVSGLNWNGDITAFTDSVKGRFTISRDNVKSSLYLQMNSLRADDTAFYYCARVRTWGDYTTGEEIINSWYFDLWGRGTLVTVSS VL: DIQLTQSPSFLSASVGDRVTITCRASQDISSYLAWYQQKPGNAPKLLIYAASLLQSGVPSRFSAFGSGTEFTLTISSLQPEDFATYYCQHLKSYPLFTFGPGTKVDIK | inhibited group 2 NAs, N1 | bound | even broader binding pattern that included group 2 NAs N3, N6, N7 and N9, group 1 NAs N1, N5 and N8 |  |  |  |  |
| 1G01: human anti-NA monoclonal antibody expressed as IgG1; heavy chain variable region SEQ ID NO: 44, light chain variable region SEQ ID NO: 45 (antibody, listed as Homo sapiens, V domains shown, IgG1 constant regions) VH: EVQLVESGGRALRPGGSLRLSCAASGFKFDDYAMSWVRQVPGKGLEFVSGLNWNGDITAYTDSVKGRFTVSRDNAKNSLYLHINSPKPEDTALYYCARTSSWGDYTRGPEPKITWYFDLWGRGTLVTVSS VL: DIQLTQSPSFLSASVGDRITITCRASQGIDGYLAWYQQRPGKAPNLLIYAASLLQSGVPSRFSGSGYGTEFTLTISSLQPEDFATYYCQHLDSYPLFTFGPGTKVDIK | inhibited the activity of all A/group 2 and group 1 NAs | bound | broadest binding activity that covered all group 1 NAs (N1, N4, N5 and N8) and group 2 NAs (N2, N3, N6, N7 and N9) | some transient weight loss | solid protection against weight loss | full protection from lethality |  |
| 1G01 Fab: antigen-binding fragment (Fab) of 1G01 used instead of the full antibody (antibody, left off: a dimerising Fc or GST) heavy: EVQLVESGGRALRPGGSLRLSCAASGFKFDDYAMSWVRQVPGKGLEFVSGLNWNGDITAYTDSVKGRFTVSRDNAKNSLYLHINSPKPEDTALYYCARTSSWGDYTRGPEPKITWYFDLWGRGTLVTVSS light: DIQLTQSPSFLSASVGDRITITCRASQGIDGYLAWYQQRPGKAPNLLIYAASLLQSGVPSRFSGSGYGTEFTLTISSLQPEDFATYYCQHLDSYPLFTFGPGTKVDIK |  |  |  |  |  |  | potent inhibition |
